± gives the uncertainty stated by the source.
Experiment: protein stability index of a GFP-peptide fusion (yeast GPS) (PSI 1-4); higher = more stable; sorted into four equal gates, so the index is relative within each strain
In short: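 Sequencing reads from sorted gates were used to score each peptide. The library consisted of tiled 17-residue yeast protein peptides fused downstream of GFP on a Cherry-expressing plasmid, pooled and carried in yeast. Mid-log cultures in leucine-free medium were split into four equal gates by GFP/Cherry ratio, and each gate's plasmids were PCR-amplified and Illumina-sequenced. The protein stability index adds up, over all gates, the read frequency multiplied by the gate number.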

Sequence	protein stability index (doa10∆)	protein stability index (pdr5∆)	protein stability index (san1∆)	protein stability index (ubr1∆)
PFNQGSKQDVEALIEFI [FAS2]	3.08 ± 0.073	3.15 ± 0.076	3.01 ± 0.079	3.08 ± 0.061
PFSLTYVRTEETDGKHG [YMR129W/POM152]	3.13 ± 0.14	3.28 ± 0.096	3 ± 0.074	3.19 ± 0.069
PGEFVTAIAHSIREQVH [SNF5]	2.27 ± 0.08	2.13 ± 0.047	1.94 ± 0.054	2.29 ± 0.047
PGGILRAQHVKKLATRP [RPL34A]	3.04 ± 0.24	3.39 ± 0.21	3.37 ± 0.16	3.02 ± 0.14
PGRKYTTLGKLSTSVGW [RPL16A]	2.92 ± 0.089	2.78 ± 0.092	2.2 ± 0.23	2.47 ± 0.091
PGSVEEVDKSKLITTYI [YDL116W/NUP84]	3.39 ± 0.18	3.33 ± 0.26		3.42 ± 0.18
PHATATEKEPVPAVVDD [SNF6]	3.24 ± 0.11	3.08 ± 0.068	2.82 ± 0.14	3.18 ± 0.087
PHIIAVACLFITISIHG [SSN8]	1.17 ± 0.055	1.3 ± 0.049	1.34 ± 0.11	1.47 ± 0.062
PHNSKSLGFLQQSNKLH [RPN3]	3.11 ± 0.059	3.07 ± 0.072	3.1 ± 0.053	3.26 ± 0.055
PIKADKDYSQILKEEFP [RPN5]	3 ± 0.1	2.46 ± 0.079	2.18 ± 0.13	2.69 ± 0.062
PIKNRTSKSFSKLLYDD [SIN4]	2.63 ± 0.07	2.73 ± 0.045	2.22 ± 0.086	2.64 ± 0.048
PIPFEFQAVIQKSINHP [SNF2]	2.67 ± 0.11	2.61 ± 0.081	2.37 ± 0.077	2.86 ± 0.057
PIPSKPTLFDLAFNYIT [SRP68]	1.64 ± 0.051	1.54 ± 0.046	1.74 ± 0.071	2.02 ± 0.046
PIPVQGEIEIKPNEEEE [RPN13]	2.45 ± 0.081	2.59 ± 0.067	2.58 ± 0.15	2.67 ± 0.1
PKALRFDRLVAGQIPTG [FAS2]	2.15 ± 0.18		2.59 ± 0.25	
PKCHSRENVFFQSQQRR [RPB9]	3.14 ± 0.088	2.65 ± 0.081	2.22 ± 0.089	2.65 ± 0.054
PKDFSPNFTGIDKLMLS [SSN2]	1.42 ± 0.17	1.38 ± 0.15	1.85 ± 0.27	1.26 ± 0.11
PKKALKVKAGVRSANED [RRP43]	2.84 ± 0.1	2.35 ± 0.088	2.81 ± 0.069	2.41 ± 0.051
PKKHLSETADETLENNI [RPN11]	3.15 ± 0.1	3.13 ± 0.098	3.17 ± 0.077	2.84 ± 0.088
PKMQWSLQDNSAAINNE [RPN4]	3.15 ± 0.063	3.2 ± 0.053	2.96 ± 0.048	3.15 ± 0.041

Sequence	protein stability index (doa10∆)	protein stability index (pdr5∆)	protein stability index (san1∆)	protein stability index (ubr1∆)
PKNKLVPTLEAKRDYII [FAS1]	1.71 ± 0.071	1.59 ± 0.1	2.63 ± 0.098	2.15 ± 0.11
PKSTLDNWRREFLKWTP [ISW2]		3.15 ± 0.15		2.76 ± 0.09
PKVKEIKTVVLVPQLGH [PRP8]	1.93 ± 0.088	2.25 ± 0.08	1.94 ± 0.14	2.31 ± 0.048
PKVPVSAAATPSLNKTI [GAL11]	2.5 ± 0.039	2.77 ± 0.033	2.67 ± 0.035	2.63 ± 0.036
PKVTPQMMQQAQQKLKQ [SRP54]	1.42 ± 0.25	1.18 ± 0.18		1.48 ± 0.24
PLDEIPVDVDFNLDLDD [REC8]	2.7 ± 0.1	2.43 ± 0.066	2.24 ± 0.088	2.25 ± 0.066
PLDRLENVLAIGIAGAH [SKI6]	1.26 ± 0.085	1.78 ± 0.092	1.54 ± 0.18	1.85 ± 0.12
PLDSKDENFASVSPAGP [SNF2]	3.05 ± 0.11	3.12 ± 0.092	3.15 ± 0.071	2.99 ± 0.06
PLFIVEDDESLGHKELK [RPB2]	3.34 ± 0.15	3.34 ± 0.15	2.77 ± 0.14	1.8 ± 0.097
PLHSGKTSLMDLLVIDS [SNU114]	2.48 ± 0.068	2.75 ± 0.085	2.81 ± 0.1	2.47 ± 0.048
PLITRHCYPRQLCQITC [RRP46]	1.89 ± 0.054	2.02 ± 0.049	1.92 ± 0.095	2.11 ± 0.044
PLIWQLLQSSIINKLIH [POP3]	2 ± 0.059	2.38 ± 0.062	2.01 ± 0.096	1.84 ± 0.028
PLKLSGEGPFTVKFKHM [YMR129W/POM152]	2.92 ± 0.064	2.93 ± 0.064	2.75 ± 0.086	2.72 ± 0.076
PLNDGFVDLVEHFLKLN [YML103C/NUP188]	1.84 ± 0.28	1.63 ± 0.12		2.53 ± 0.13
PLPLDLNVQVWHIEETG [ITC1]	1.87 ± 0.063	2.17 ± 0.059	2.18 ± 0.089	2.17 ± 0.071
PLRGALATYGLTIDDLG [FAS2]	2.38 ± 0.087	2.51 ± 0.1	2.19 ± 0.1	2.72 ± 0.079
PLVLLQQIPLLCYMAPM [POP3]	1.72 ± 0.053	1.59 ± 0.061	1.85 ± 0.074	1.92 ± 0.054
PNCPRPNMSICIFGDAF [RPL1A]	1.75 ± 0.083	1.55 ± 0.06	1.55 ± 0.2	1.53 ± 0.04
PNIADYITAKNNVVINF [PRP8]	2.11 ± 0.087	1.26 ± 0.065	1.43 ± 0.28	1.26 ± 0.067
PNIFPNLTYYNEKLECI [ITC1]	2.6 ± 0.07	2.58 ± 0.067	2.59 ± 0.056	2.68 ± 0.05

— the supplement of paper PMC9732359
